The target of this data set is human apolipoprotein E4.
human apolipoprotein E4, sequence (chain, as listed by the source): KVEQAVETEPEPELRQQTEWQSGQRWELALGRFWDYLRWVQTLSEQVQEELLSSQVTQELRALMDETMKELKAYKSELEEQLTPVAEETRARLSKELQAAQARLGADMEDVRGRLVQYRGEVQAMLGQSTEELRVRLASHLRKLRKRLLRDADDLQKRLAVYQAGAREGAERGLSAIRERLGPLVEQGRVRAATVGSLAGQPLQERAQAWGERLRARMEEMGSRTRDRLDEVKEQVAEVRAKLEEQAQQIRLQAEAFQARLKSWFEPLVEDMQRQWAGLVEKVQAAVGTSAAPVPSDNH

B1: endogenous PCSK1 of NSE-apoE4 mouse neurons/brain (protein)
chain: SVQKDSALDLFNDPMWNQQWYLQDTRMTAALPKLDLHVIPVWEKGITGKGVVITVLDDGLEWNHTDIYANYDPEASYDFNDNDHDPFPRYDLTNENKHGTRCAGEIAMQANNHKCGVGVAYNSKVGGIRMLDGIVTDAIEASSIGFNPGHVDIYSASWGPNDDGKTVEGPGRLAQKAFEYGVKQGRQGKGSIFVWASGNGGRQGDNCDCDGYTDSIYTISISSASQQGLSPWYAEKCSSTLATSYSSGDYTDQRITSADLHNDCTETHTGTSASAPLAAGIFALALEANPNLTWRDMQHLVVWTSEYDPLASNPGWKKNGAGLMVNSRFGFGLLNAKALVDLADPRTWRNVPEKKECVVKDNNFEPRALKANGEVIVEIPTRACEGQENAIKSLEHVQFEATIEYSRRGDLHVTLTSAVGTSTVLLAERERDTSPNGFKNWDFMSVHTWGENPVGTWTLKITDMSGRMQNEGRIVNWKLILHGTSSQPEHMKQPRVYTSYNTVQNDRRGVEKMVNVVEKRPTQKSLNGNLLVPKNSSSSNVEGRRDEQVQGTPSKAMLRLLQSAFSKNALSKQSPKKSPSAKLSIPYESFYEALEKLNKPSKLEGSEDSLYSDYVDVFYNTKPYKHRDDRLLQALMDILNEEN
With B1, the “apoE fragmentation by western blot in brains of PCSK1 null, NSE-apoE4 pups” value is “a significant decrease in apoE fragmentation was observed in PCSK1 null, NSE-apoE4 brains compared to that of PCSK1 WT, NSE-apoE4 brains”; the “apoE fragmentation in NSE-apoE4 primary neurons after shRNA knockdown” value is “knocking down either PCSK1 or PCSK2 in NSE-apoE4 primary neurons decreased apoE fragmentation”; the “apoE fragmentation in PCSK1 null primary neurons” value is “A decrease of apoE fragmentation was observed in PCSK1 null primary neurons compared to PCSK1 wild-type (WT) neurons”.

B2: endogenous PCSK2 of NSE-apoE4 mouse neurons/brain (protein)
chain: GYRDINEIDINMNDPLFTKQWYLFNTGQADGTPGLDLNVAEAWELGYTGKGVTIGIMDDGIDYLHPDLAYNYNADASYDFSSNDPYPYPRYTDDWFNSHGTRCAGEVSAAASNNICGVGVAYNSKVAGIRMLDQPFMTDIIEASSISHMPQLIDIYSASWGPTDNGKTVDGPRELTLQAMADGVNKGRGGKGSIYVWASGDGGSYDDCNCDGYASSMWTISINSAINDGRTALYDESCSSTLASTFSNGRKRNPEAGVATTDLYGNCTLRHSGTSAAAPEAAGVFALALEANLDLTWRDMQHLTVLTSKRNQLHDEVHQWRRNGVGLEFNHLFGYGVLDAGAMVKMAKDWKTVPERFHCVGGSVQNPEKIPPTGKLVLTLKTNACEGKENFVRYLEHVQAVITVNATRRGDLNINMTSPMGTKSILLSRRPRDDDSKVGFDKWPFMTTHTWGEDARGTWTLELGFVGSAPQKGLLKEWTLMLHGTQSAPYIDQVVRDYQSKLAMSKKQELEEELDEAVERSLQSILRKN
For B2, the “apoE fragmentation after PCSK2 shRNA in PCSK1 null and PCSK1 WT primary neurons” value is given as “PCSK2 shRNAs or 7B2 shRNAs decrease apoE fragmentation in PCSK1 null, primary neurons as well as in PCSK1 WT primary neurons”; the “apoE fragmentation in NSE-apoE4 primary neurons after shRNA knockdown” value was “knocking down either PCSK1 or PCSK2 in NSE-apoE4 primary neurons decreased apoE fragmentation”.
